Assay results published in paper PMC11092324 (Journal of Virology, 2024).

Experiments:
Conditions in all cases: both partners purified
[1] = target: T1, GI.9 Vancouver virus-like particles (VP1 protein of the norovirus GI.9 Vancouver strain) (Norovirus Hu/GI.9/Vancouver730/2004/CAN, UniProt F2XMU3, strain); test: ELISA; sandwich ELISA: CV-1A1 Fv-clasp or scFv (0.7 µM in 50 mM carbonate buffer pH 9.6) coated on high-binding microplates, VLPs added in twofold serial dilutions, 37°C 2 h, detected with rabbit anti-VLP antisera; data fit to the Michaelis-Menten equation, Km taken as Kd (affinity or avidity); concentration counted as VP1
T1 construct: also called Vancouver VLPs; GI.9 Vancouver VP1

[2] = target: T1, GI.9 Vancouver virus-like particles …; test: ELISA; sandwich ELISA: Strep-tagged CV-2F5 scFv (0.7 µM in PBS) held on Strep-Tactin-coated wells, VLPs added in twofold serial dilutions, 37°C 2 h, detected with rabbit anti-VLP antisera; data fit to the Michaelis-Menten equation, Km taken as Kd (affinity or avidity); concentration counted as VP1
[3] = target: T2, P domain of the VP1 protein from the GI.4 Chiba strain (P dimer) (norovirus GI.4 Chiba strain); test: crystal structure; Chiba P domain mixed with CV-2F5 scFv in a molar ratio of 1:1.2, complex isolated by size-exclusion chromatography, crystallized by sitting drop at 25°C in 35% Tacsimate pH 7.0
T2 construct: also called Chiba P domain protein; Chiba P dimers; source: E. coli cell-free protein synthesis system, purified (HisTrap, SUMO protease, HiTrapQ)
T2 chain: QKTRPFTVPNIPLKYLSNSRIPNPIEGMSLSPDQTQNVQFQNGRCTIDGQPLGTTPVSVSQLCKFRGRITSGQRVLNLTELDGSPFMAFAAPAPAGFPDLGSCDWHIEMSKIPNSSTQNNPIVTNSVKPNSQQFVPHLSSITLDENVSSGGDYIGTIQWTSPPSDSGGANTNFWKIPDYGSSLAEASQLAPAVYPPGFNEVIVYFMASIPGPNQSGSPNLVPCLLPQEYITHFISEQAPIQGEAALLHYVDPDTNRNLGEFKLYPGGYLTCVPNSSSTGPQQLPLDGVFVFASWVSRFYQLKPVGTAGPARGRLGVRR

B1: CV-1A1 Fv-clasp (other)
VH: EVQLVESGAEVKKPGASVKVSCKASGYTFTSLYMHWVRQAPGQGLEWMGMINPSGGGTWNAQKFQGRVTMTRDTSTSTVYMELRSLRSDDTAMYYCARDSDQYSQGLGYWGQGTLVTVCS
VL: QSALTQPASVSGSPGQSITISCTGTSSDVGGYNYVSWYQQHPGKAPKLMIYDVSKRPSGVSNRFSGSKSGNTASLTISGLQAKDEADYYCSSYTSSSTWVFGGGTKLTVL
notes: also called CV-1A1 Fv-clasp fragments; Fv-clasp version of CV-1A1; source: E. coli cell-free protein synthesis system (with DsbC and Skp), purified (HisTrap, TEV protease, HiTrap Q)
binding result [1]: no binding

B2: Strep-tagged CV-2F5 scFv (scFv, V domains shown)
VH: EVQLVESGGGLVKPGGSLRLSCAASGFTFSSYNMNWVRQAPGKGLEWVSSISTSSRYIYYADSVKGRFTISRDNAKNSLYLQMNSLRAEDTAVYYCAREEGSVDYGMDVWGQGTTVTVSS
VL: not shown
notes: also called CV-2F5-Strep; source: E. coli harboring pETSUMO-CV-2F5-Strep, purified (TALON resin, SUMO protease on the resin); not shown: His tag, N-terminal, cleaved; SUMO, N-terminal, cleaved; Strep-tag, C-terminal, kept
Kd [2]: 14.4 nM

B3: CV-2F5 scFv (N11-TEV construct, tag removed) (scFv, V domains shown)
VH: B2 VH
VL: not shown
notes: also called CV-2F5 antibody fragment; CV-2F5 scFv antibodies; source: E. coli cell-free protein synthesis system, purified (HisTrap, TEV protease, HiTrap SP)
stoichiometry N [3]: 1
